Data taken from patent US20200115452A1 (Dana-Farber, published 2020).
Where no end group is shown, it is not given here.

T1: PD-1 pITIM peptide KEDPSAVPVFSVD(pY)GELDFQWRE (phosphotyrosine (pY) at peptide residue 14 (PD-1 ITIM tyrosine))
T1 construct: Coated on ELISA plates at 1 µg/ml; also called negative control pITIM peptide
T1 peptide: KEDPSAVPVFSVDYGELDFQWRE

T2: unphosphorylated peptide (unphosphorylated form of the PD-1 p248Tyr peptide) (human, not fully specified)
T2 peptide: VPEQTEYATIVF

B1: rabbit mAb 6H2/6K2 (antibody, V domains shown)
VH: CQSVEESGGRLVTPGTPLTLTCTVSGIDLNYYAMGWVRQAPGKGLEYIGWIKSSGSAYYARWVNGRFTISKTSSTTVDLKMTSPTTEDTATYFCARDGHNIIEYYDLWGQGTLVTVSS
VL: AIKMTQTPSSAEAAVGGTITINCQASQSISSSLAWYQQKPGQPPKLLIYKASTLASGVPSRFSGSRSGTQFTLTISGVQCDDAATYYCQQGWSGDNVDNIFGGGTEVVVK
notes: Rabbit monoclonal tested as culture supernatant
B2: anti-phosphorylated PD-1 monoclonal antibody 407.6G12 (antibody, mouse IgG2a, V domains shown)
VH: EVQLVESGGGLVQPKGSLKLSCAASGFTFNTYAMNWVRQAPGKGLEWVARIRSKSDNYATYYADSVKDRFTISRDDSQSMLYLQMNNLKTEDTAMYYCMRGITTVNVWGAGTTVTVSS
VL: DIVMTQSQKFMSTSVGDRVSVTCKASQNVGTNVAWYQQKPGQSPKALIYSASYRYSGVPDRFTGSGSGTDFTLTISNVHSEDLAEYFCQQYNFYPLTFGAGTKLELK
notes: Mouse IgG2a, kappa; A BV421-conjugated version was used for flow cytometry; also called clone 407.6G12; 307.6G12
B3: rabbit mAb 2H2/2K4 (antibody, V domains shown)
VH: QSLEESGGDLVKPGASLTLTCKASGFSFSGSYHMCWVRQAPGKGLEWIAHIYVGSSGGTYYASWAKGRFAISKTSSTTVTLQMTSLTAADTATYFCARRDTGGTSAYALWGQGTLVTVSS
VL: DVVMTQTPSSASEPVGGTVTIKCQASQSVSSRLAWYQQKPGQPPKLLIYKASTLASGVPSRFKGSGYGTEFTLTISDLECADAATYYCQCTYIDSTYGNNFGGGTEVVVK
notes: Rabbit monoclonal tested as culture supernatant, detected with anti-rabbit IgG Fc

Tests used:
[1] = molecular target: T1, PD-1 pITIM peptide …; experiment: peptide ELISA with antibody supernatants
BSA = molecular target: T3, BSA (UniProt P02769 25-607); experiment: ELISA, hybridoma screen
T3 construct: Carrier control in the hybridoma ELISA screen; also called carrier
T3 sequence (P02769 25-607 limits assumed): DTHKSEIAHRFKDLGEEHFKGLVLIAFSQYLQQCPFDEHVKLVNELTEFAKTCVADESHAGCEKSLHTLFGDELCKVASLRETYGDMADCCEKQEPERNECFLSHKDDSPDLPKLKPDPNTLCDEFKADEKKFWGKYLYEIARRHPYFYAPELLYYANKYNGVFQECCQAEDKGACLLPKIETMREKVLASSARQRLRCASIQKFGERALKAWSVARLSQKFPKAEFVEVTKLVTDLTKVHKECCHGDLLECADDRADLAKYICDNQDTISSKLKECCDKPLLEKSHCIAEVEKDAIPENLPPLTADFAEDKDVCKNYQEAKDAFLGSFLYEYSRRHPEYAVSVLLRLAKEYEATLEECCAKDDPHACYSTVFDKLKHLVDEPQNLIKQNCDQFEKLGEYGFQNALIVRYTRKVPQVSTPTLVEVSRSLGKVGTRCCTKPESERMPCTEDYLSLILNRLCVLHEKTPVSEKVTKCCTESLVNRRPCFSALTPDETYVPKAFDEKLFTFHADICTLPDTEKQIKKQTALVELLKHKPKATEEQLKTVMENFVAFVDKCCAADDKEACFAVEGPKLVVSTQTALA
Description: (§1) Hybridoma wells were screened by western blot on pervanadate treated Jurkat-hPD-1 lysates and by ELISA on PD-1 p248Tyr peptide conjugated to BSA and lack of reactivity to unphosphorylated peptide or BSA.

[2] = molecular target: T2, unphosphorylated peptide …; experiment: ELISA, hybridoma screen
Description: as §1

Binder | binding result [1] | binding result (BSA) | binding result [2]
B1 | no binding | – | –
B2 | – | no binding | no binding
B3 | no binding | – | –
